From PMC3061879, “Crystal Structure of a Coiled-Coil Domain from Human ROCK I” (PLoS ONE, 2011)

B1: ROCK coiled-coil domain (ROCK-CC, residues 535–700) of human ROCK I (domain or fragment, UniProt Q13464 535-700, looked up)
chain: LANEKLSQLQKQLEEANDLLRTESDTAVRLRKSHTEMSKSISQLESLNRELQERNRILENSKSQTDKDYYQLQAILEAERRDRGHDSEMIGDLQARITSLQEEVKHLKHNLEKVEGERKEAQDMLNHSEKEKNNLEIDLNYKLKSLQQRLEQEVNEHKVTKARLTD
modifications: selenomethionine (SeMet) substituted protein in the crystals used for the structure
notes: Rho-associated kinase ROCK I (p160 ROCK), human, residues 535-700 of the central coiled-coil domain; The model holds residues 542–693 (A), 541–692 (B), 535–692 (C), 535–693 (D); also called ROCK (535–700); p160 ROCK (535–700); source: E. coli Rosetta2 (DE3), purified (Ni-NTA, TEV cleavage, cation exchange HiTrap SP); not shown: 6xHistidine-TEV, N-terminal, cleaved
B2: ROCK (535–704), coiled-coil fragment of human ROCK I (domain or fragment, UniProt Q13464 535-704, looked up)
chain: LANEKLSQLQKQLEEANDLLRTESDTAVRLRKSHTEMSKSISQLESLNRELQERNRILENSKSQTDKDYYQLQAILEAERRDRGHDSEMIGDLQARITSLQEEVKHLKHNLEKVEGERKEAQDMLNHSEKEKNNLEIDLNYKLKSLQQRLEQEVNEHKVTKARLTDKHQS
notes: Rho-associated kinase ROCK I (p160 ROCK), human, residues 535-704 of the central coiled-coil domain; The purification is described only for ROCK (535–700); also called ROCK-CC (as called in the text and legend title of the SEC-MALS experiment); source: E. coli Rosetta2 (DE3), purified

How the values were obtained:
[1] = target: the molecule itself; experiment: crystal structure; SeMet ROCK (535–700), space group P4(3)2(1)2; 13% MPD, 100 mM NaCl, 100 mM sodium acetate pH 4.9, 10 mM DTT, 5% glycerol, 10 mM spermidine; SAD phasing; four molecules (2 dimers) per asymmetric unit
[2] = target: the molecule itself; experiment: SEC-MALS; Superdex 200 in 20 mM Hepes pH 7.5, 150 mM NaCl, 2 mM TCEP; Wyatt miniDAWN TREOS three-angle light scattering detector and Optilab-rEX refractive index detector

Protein	binding result [1]	stoichiometry N [2]
B1	binds	–
B2	–	2
